According to patent US20240002497A1 (Merck Sharp & Dohme, published 2024):
Numbering of substitutions follows the chain as printed. Numbers in names are those of the source. Blank lines part the entries; values can stand above or below the binder they belong to.

What was measured:
huNav1.7α+β1-β2-β3 = biological target: T1, huNav1.7α+β1-β2-β3 (human, UniProt Q15858 1-1988; Q07699 19-218; O60939 30-215; Q9NY72 23-215); assay: binding FACS, CHO FlpIn cells
T1 construct: 5N11S variant; also called huNav1.7-beta1-beta2-beta3; huNav1.7α+Navβ1-Navβ2-Navβ3
Method in brief: (§1)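 Flow cytometry read-out of anti-Flag signal on propidium iodide-negative cells measured ISVD binding. Purified FLAG3-tagged ISVD, diluted in PBS with 10% FBS and NaN₃, was applied to the cells for 30 minutes at 4° C.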

muNav1.7α = biological target: T2, muNav1.7α (murine, UniProt Q62205 1-1984); assay: binding FACS, HEK JmpIn
T2 construct: HEK JmpIn cells; also called murine Nav1.7α
Method: Binding of the ISVDs to cell-expressed Nav1.7α was detected via murine anti-Flag (Sigma, catalog #F1804). Briefly, cells were resuspended in FACS buffer (PBS, 10% FBS, NaN₃) and transferred to a 96-well V-bottom plate at 1×10^5 cells/well. Purified FLAG3-tagged ISVD was diluted in FACS buffer and added to the cells for 30 minutes at 4° C. […] Prior to the read-out, the samples were resuspended in 1 μg/mL propidium iodide (Sigma, catalog #P4170) to exclude dead cells. Between each step, the cells were centrifuged for 5 minutes at 200 grams and washed with 100 μL/well FACS buffer.

rhNav1.7α + β1-β2-β3 = biological target: T3, rhNav1.7α + β1-β2-β3 (rhesus monkey); assay: binding FACS, CHO FlpIn
T3 construct: also called rhNav1.7-beta1-beta2-beta3; rhNav1.7-β1-β2-β3
Method in brief: as §1

huNav1.7α + β1-β2-β3 = biological target: T4, huNav1.7α + β1-β2-β3 (human, UniProt Q15858 1-1988; A5A6L6 19-218; O60939 30-215; Q2KI11 23-215); assay: binding FACS, CHO FlpIn
T4 construct: also called huNav1.7-beta1-beta2-beta3; huNav1.7-β1-β2-β3
Method in brief: as §1

- EC50 (huNav1.7α+β1-β2-β3): 5.7 nM
B1: F010301440 (VHH)
VHH: EVQLVESGGGLVQAGGSLRLSCDASGRILRIGYMRWHRQGAGKQREFVARITDDSATDYADSVKGRFTISRDNAKNTVYLQMNNLNPEDTAVYYCEALVTASVRGGSIHSTTYWGRGTLVTVSS
notes: vs 387G05: G100hT

- EC50 (muNav1.7α): 11 nM
- EC50 (rhNav1.7α + β1-β2-β3): 62 nM
- Bmax (huNav1.7α + β1-β2-β3): 98%
- EC50 (huNav1.7α + β1-β2-β3): 6.3 nM
B2: F010301868 (VHH)
VHH: EVQLVESGGGVVQPGGSLRLSCATTSRAFIRDVFTGWYRRVPGKERELVARIYNGGNTNYADFAKGRFTISRDNAKKMVYLQMNSLRPEDTALYYCLFSGTINTGREYRSGDYWGQGTLVTVSS
notes: also called F0103464B09(L11V, S68T, T79Y, R81Q, S82aN, N82bS, K83R, G88A, V89L)

- EC50 (muNav1.7α): 14 nM
- EC50 (rhNav1.7α + β1-β2-β3): 52 nM
- Bmax (huNav1.7α + β1-β2-β3): 100%
- EC50 (huNav1.7α + β1-β2-β3): 6.4 nM
B3: F010301875 (VHH)
VHH: B2 VHH with F63S
notes: also called F0103464B09(L11V, F62S, S68T, T79Y, R81Q, S82aN, N82bS, K83R, G88A, V89L)

- EC50 (muNav1.7α): 5.3 nM
- EC50 (rhNav1.7α + β1-β2-β3): 21 nM
- Bmax (huNav1.7α + β1-β2-β3): 94%
- EC50 (huNav1.7α + β1-β2-β3): 4.4 nM
B4: F010301933 (VHH)
VHH: B2 VHH with Y80T, Q82R, N84S, S85N, A92G
notes: also called F0103464B09(L11V, S68T, K83R, V89L)

- EC50 (muNav1.7α): 5.5 nM
- EC50 (rhNav1.7α + β1-β2-β3): 27 nM
- Bmax (huNav1.7α + β1-β2-β3): 94%
- EC50 (huNav1.7α + β1-β2-β3): 3.8 nM
B5: F010301935 (VHH)
VHH: B2 VHH with T69S, Q82R, N84S, S85N, A92G
notes: also called F0103464B09(L11V, T79Y, K83R, V89L)

- EC50 (muNav1.7α): 4.8 nM
- EC50 (rhNav1.7α + β1-β2-β3): 26 nM
- Bmax (huNav1.7α + β1-β2-β3): 95%
- EC50 (huNav1.7α + β1-β2-β3): 4.4 nM
B6: F010301936 (VHH)
VHH: B2 VHH with T69S, Y80T, N84S, S85N, A92G
notes: also called F0103464B09(L11V, R81Q, K83R, V89L)

- EC50 (muNav1.7α): 18 nM
- EC50 (rhNav1.7α + β1-β2-β3): 55 nM
- Bmax (huNav1.7α + β1-β2-β3): 100%
- EC50 (huNav1.7α + β1-β2-β3): 6.5 nM
B7: F010301874 (VHH)
VHH: B2 VHH with V41A
notes: also called F0103464B09(L11V, V40A, S68T, T79Y, R81Q, S82aN, N82bS, K83R, G88A, V89L)

- EC50 (muNav1.7α): 23 nM
- EC50 (rhNav1.7α + β1-β2-β3): 110 nM
- Bmax (huNav1.7α + β1-β2-β3): 100%
- EC50 (huNav1.7α + β1-β2-β3): 6.3 nM
B8: F010301876 (VHH)
VHH: B2 VHH with A64V
notes: also called F0103464B09(L11V, A63V, S68T, T79Y, R81Q, S82aN, N82bS, K83R, G88A, V89L)

- EC50 (muNav1.7α): 4.5 nM
- EC50 (rhNav1.7α + β1-β2-β3): 21 nM
- Bmax (huNav1.7α + β1-β2-β3): 96%
- EC50 (huNav1.7α + β1-β2-β3): 4.3 nM
B9: F010301934 (VHH)
VHH: B2 VHH with T69S, M78T, Y80T, Q82R, N84S, S85N, A92G
notes: also called F0103464B09(L11V, M77T, K83R, V89L)

- EC50 (muNav1.7α): 42 nM
- EC50 (rhNav1.7α + β1-β2-β3): 110 nM
- Bmax (huNav1.7α + β1-β2-β3): 100%
- EC50 (huNav1.7α + β1-β2-β3): 9 nM
B10: F010301873 (VHH)
VHH: B2 VHH with R40Q
notes: also called F0103464B09(L11V, R39Q, S68T, T79Y, R81Q, S82aN, N82bS, K83R, G88A, V89L)

- EC50 (muNav1.7α): 17 nM
- EC50 (rhNav1.7α + β1-β2-β3): 96 nM
- Bmax (huNav1.7α + β1-β2-β3): 100%
- EC50 (huNav1.7α + β1-β2-β3): 7.6 nM
B11: F010301869 (VHH)
VHH: B2 VHH with M78T
notes: also called F0103464B09(L11V, S68T, M77T, T79Y, R81Q, S82aN, N82bS, K83R, G88A, V89L)

- EC50 (muNav1.7α): 4.8 nM
- EC50 (rhNav1.7α + β1-β2-β3): 17 nM
- Bmax (huNav1.7α + β1-β2-β3): 94%
- EC50 (huNav1.7α + β1-β2-β3): 4.3 nM
B12: F010301932 (VHH)
VHH: B2 VHH with T69S, Y80T, Q82R, N84S, S85N, A92G
notes: also called F0103464B09(L11V, K83R, V89L)

- EC50 (muNav1.7α): 24 nM
- EC50 (rhNav1.7α + β1-β2-β3): 37 nM
- Bmax (huNav1.7α + β1-β2-β3): 100%
- EC50 (huNav1.7α + β1-β2-β3): 5.8 nM
B13: F010301871 (VHH)
VHH: B2 VHH with T24A
notes: also called F0103464B09(L11V, T24A, S68T, T79Y, R81Q, S82aN, N82bS, K83R, AG88, V89L)

- EC50 (muNav1.7α): 3.6 nM
- EC50 (rhNav1.7α + β1-β2-β3): 21 nM
- Bmax (huNav1.7α + β1-β2-β3): 100%
- EC50 (huNav1.7α + β1-β2-β3): 5.8 nM
B14: F010301893 (VHH)
VHH: B2 VHH with E45Q
notes: also called F0103464B09(L11V, E44Q, S68T, T79Y, R81Q, S82aN, N82bS, K83R, G88A, V89L)

- EC50 (muNav1.7α): 39 nM
- EC50 (rhNav1.7α + β1-β2-β3): 96 nM
- Bmax (huNav1.7α + β1-β2-β3): 100%
- EC50 (huNav1.7α + β1-β2-β3): 13 nM
B15: F010301877 (VHH)
VHH: B2 VHH with K77N
notes: also called F0103464B09(L11V, S68T, K76N, T79Y, R81Q, S82aN, N82bS, K83R, G88A, V89L)

- EC50 (muNav1.7α): 21 nM
- EC50 (rhNav1.7α + β1-β2-β3): 57 nM
- Bmax (huNav1.7α + β1-β2-β3): 100%
- EC50 (huNav1.7α + β1-β2-β3): 6.8 nM
B16: F010301872 (VHH)
VHH: B2 VHH with T25S
notes: also called F0103464B09(L11V, T25S, S68T, T79Y, R81Q, S82aN, N82bS, K83R, G88A, V89L)
